Assay results published in patent US20180105832A1 (FRAUNHOFER GESELLSCHAFT ZUR FOERDERUNG DER ANGEWANDTEN …, published 2018).

Molecular target: T1, Pepscan peptide 3 of CSP (amino acids 25-37) (Aspergillus flavus)
T1 peptide: YDDPDCDPGFTCR
Assay: Pepscan-ELISA

B1: Aspergillus-specific monoclonal antibody AP10 (mAbAP10) (antibody, V domains shown)
VH: DVQLVESGGGLVQPGGSRKLSCAASGFTFSSFGMHWVRQAPEKGLEWVAYINGGSGTIYYADTVKGRFTISRDNPRNTLFLQMETTSLRSEDTAMYYCARGGDDPFAYWGQGTLVTV
VL: IQMTQSPSSLSAYLGDKVTITCMASQDINNHIAWYQLKPGKGPRLLIHYTSTLHPGIPSRFSGSGSGRDYSFSISDLEPEDIATYYCLQYDNLRTFGGGTKLEIK
notes: also called CSP-specific mAbAP10
binding efficiency relative to peptide 4: 2 fold
